US20030170760A1

Target: T1, Ste2 (yeast) (UniProt D6VTK4)
T1 sequence (looked up): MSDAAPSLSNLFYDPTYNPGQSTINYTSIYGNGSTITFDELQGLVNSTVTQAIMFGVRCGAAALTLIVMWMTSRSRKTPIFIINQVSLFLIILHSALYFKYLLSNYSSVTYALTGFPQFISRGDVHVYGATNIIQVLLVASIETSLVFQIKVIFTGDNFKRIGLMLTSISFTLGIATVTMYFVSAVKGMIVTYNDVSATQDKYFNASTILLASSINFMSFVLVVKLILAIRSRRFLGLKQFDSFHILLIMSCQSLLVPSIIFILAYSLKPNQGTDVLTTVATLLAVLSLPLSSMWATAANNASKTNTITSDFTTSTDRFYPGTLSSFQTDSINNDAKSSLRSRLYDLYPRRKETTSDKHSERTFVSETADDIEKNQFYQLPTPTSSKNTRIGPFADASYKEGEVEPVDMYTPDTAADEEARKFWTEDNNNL
Assay: cell-based or functional assay

## α-factor (from UniProt P01149 90-102) (peptide)
  Maximum Fold Induction, lacZ assay, Fus1p-lacZ reporter, ligand incubation 1 hr, Gα GPA1: 22 fold
  Maximum Fold Induction, lacZ assay, Fus1p-lacZ reporter, ligand incubation 2 hrs, Gα GPA1: 123 fold
  Maximum Fold Induction, lacZ assay, Fus1p-lacZ reporter, ligand incubation 3 hrs, Gα GPA1: 218 fold
  Maximum Fold Induction, lacZ assay, LBF system (p8op-lacZ reporter), ligand incubation 1 hr, Gα GPA1: 29 fold
  Maximum Fold Induction, lacZ assay, LBF system (p8op-lacZ reporter), ligand incubation 2 hrs, Gα GPA1: 63 fold
  Maximum Fold Induction, lacZ assay, LBF system (p8op-lacZ reporter), ligand incubation 3 hrs, Gα GPA1: 36 fold
